Assays:
Assay in all cases: […]; 5 mM HEPES pH 7.5, 80 mM KCl, 20 °C; […]
Conditions in all cases: both partners purified
[1] = molecular target: T1, SARS-CoV-2 N protein residues 247–419 (SARS-CoV-2, UniProt P0DTC9 247-419)
T1 construct: also called N^247–419

[2] = molecular target: T2, SARS-CoV-2 nucleocapsid (N) protein, full length (419 aa) (SARS-CoV-2, UniProt P0DTC9 1-419)
T2 construct: also called N^1–419; N^FL

[3] = molecular target: T3, SARS-CoV-2 N protein residues 175–419 (SARS-CoV-2, UniProt P0DTC9 175-419)
T3 construct: also called N^175–419

[4] = molecular target: T4, SARS-CoV-2 N protein residues 175–364 (SARS-CoV-2, UniProt P0DTC9 175-364)
T4 construct: also called N^175–364

Measured: binding result

B1: soluble C-terminal domain of SARS-CoV-2 membrane (M) protein (aa 104–222 of 222) fused to GFP (domain or fragment)
chain: ARTRSMWSFNPETNILLNVPLHGTILTRPLLESELVIGAVILRGHLRIAGHHLGRCDIKDLPKEITVATSRTLSYYKLGASQRVAGDSGFAAYSRYRIGNYKLNTDHSSSSDNIALLVQ
notes: also called GFP-M^104–222
binds: all assays above

Reference: article PMC7820290 (Nature Communications, 2020)
